US12077763B2, “RNA-based control of powdery mildew” (Greenlight Biosciences, Inc., priority 2021, dated 2024)

Tested on: E. necator
Test: Leaf disc assay, dry inoculum (settling tower), decrease in disease severity / hyphal growth (Example 2)
Conditions: decrease in disease severity (hyphal growth) relative to untreated control, value ± SE; for % decrease =/− SE TP1: time point 1 (untreated control hyphal growth ≥50%); for % decrease =/− SE TP2: time point 2

B1: GS1874: dsRNA trigger SEQ ID NO 120; gene target eka-like_protein (nucleic acid)
chain: CTAGAGCAGCCACGTGTAGCATGAAACCCATGACAACGTTTGCATTGTTGTATTGGTTGGCATGGTTTGTACAGTATAGCGACTCCTGATTCGTCGAATAGTCGGAATCCGGGTCATGGAGCTTGTTCTCGGGAAAAATGTGCCAGCCAAGAGCGATGTGGAGCACCAGAACGAGTCTTACCATGTACCCTAACCATCTTAGGCGCAAAGTTAGTGACTTTGATAATTTCGGCTACAAGGTTAGTATCGTCGACTGTCACACTTCCACTAGAAGTTTGACGGGCAACGGGAACAGTTGCAATACGATATGTAATAAGATCAGACGCCGGTTCTAGCTTGGCACCCTGAAAAGATATTCTATCACTGTCATTTAGTAGCTTTTGCCTTATCTCCTTTTCTTTGATAGTAAGTGCGAAGCCAGTGGGGGTTCGAGCGATGAGCGTCACATCAGATGGTACACAATTTAGATTTTTGCACAATATTT
  % decrease =/− SE TP1: 25 ± 4%
  % decrease =/− SE TP2: 14 ± 5%

B2: GS1888: dsRNA trigger SEQ ID NO 182; gene target Succinate dehydrogenase [ubiquinone] iron-sulfur subunit, mitochondrial (nucleic acid)
chain: TTTTAGGCGTTACAATCTTCAATAAATAACTAACATCGATAACAGGTCGTATACCAGCAGATACTAGTAAAGAAACGAAGATTTACCCCCTTCCTCATACCTATGTAGTTAAGGACATCGTCCCAGATCTCACACAGTTTTACAAACAGTATAAGTCCATCAAGCCATACCTTCAACGTACATCTCCCTCACCCAATGGTAAAGAATATCTACAAAGTAAGGAGGACAGAAAAAAACTCGATGGGTTATATGAGTGCATTTTGTGCGCATGCTGTTCTACTTCATGCCCCTCTTACTGGTGGAACTCTGAAGAATACTTGGGCCCAGCTGTTCTGATGCAAAGCTATAGATGGTTAGCAGATTCTCGAGATGAAAAGACAGCTGAGCGAAAGAGTGCTCTGGATAATAGTATGAGTCTCTATCGATGTCATACCATATTAAATTGTT
  % decrease =/− SE TP1: 19 ± 6%
  % decrease =/− SE TP2: 19 ± 6%

B3: GS1870: dsRNA trigger SEQ ID NO 170; gene target Myosin-24 (nucleic acid)
chain: ATTTCTCATTCGCGTAGTTGATACAGAATTGCTCGAATGAGTTTTTTGCAAAGTGTTCGAATCCATAAATATCTAAAACTCCTATAAATGACTTGACACGGCTTAAGACTTCTTCAGCAGCCAACGCATAATTGATATTTTCAACAAGCCAGTCAAAAAGACTTGAATAAACAAATTTAGCGACCGAATCTCGAACAACAATGGCTTGCTGTTGGCTTAAGCTACTAACGACTTTATCTCCCCGGGTAATTAATTGCTTCTTGACTGTCCATCTAGCAAATTCCACCGGATCAATGCCCAAAATTGAAGCAGCAATCTCTAGAGAAGGCTCATTAGGAGTAAGTGAAGATTCATTTCTTGTGGCAGTAATCTTAACATTTCCAAGATGTAGTAATGCTGCAAGTATTTTAAATATTTCGGTCTGCTGATCCTGTTTGACTCCAATTGTTGCTAGGGACTTTTTGAGTGCTTCGAATTCGGCTTTATCATCAACTCCATCTATTGAAGGTGA
  % decrease =/− SE TP1: 11 ± 5%
  % decrease =/− SE TP2: 13 ± 8%

B4: GS1876: dsRNA trigger SEQ ID NO 210; gene target Uncharacterized transcriptional regulatory protein YKL222C (nucleic acid)
chain: CGCGTTCATAAAATATATCTTCATAATCAGCGTATTTAGGTGAAAGTGTAGTAGCCAATGTCCACATGGCATAGCATAGACAAATTGGAGGACGGGTCTGAATTGGACGTTCCAAAGACATGTAAAACCGGGCTTGATGTATGATGGGCATTGAAGGGTGATAGAGAGTGAAGTAGATATGATATAATTCTTTAATCATATAATCAGGCGGTAATGGTTCTTGAAGACCTAAGCTTAGTAGCTCTTTATTGATATTTGATGTAGTTTCTTTAGGCATCTGGGAGAAGCCTGAAATAGGTGGCGACGTTTCAATGGATGTAAGAAGAGGCCTACCATCAATTGCCAAATTCAAATCTATACCCATATTCCAATTTCTTTCGAGCCGGGGAGCTGCAGCATCGGGACTTATGATATCGCATTTTCCTTCCGAGTTGAGTCGAGTCTCCAATTGAGCTAGCCTAGCTTCAATTTCTTTTTCTTT
  % decrease =/− SE TP1: 20 ± 6%
  % decrease =/− SE TP2: 10 ± 8%

B5: GS1873: dsRNA trigger SEQ ID NO 153; gene target Probable serine/threonine-protein kinase fhkC (nucleic acid)
chain: CACATCGAGATATAAAACCCGAAAATATACTTCTCATGAATAGAACTCCTACTATTAAATTAGGTGATTTTGGCTTGGCCAAGATCGTTGGTGAGGAATCATTCACAACAAGCTTATGTGGAACACCCAGTTATGTTGCACCAGAGATCCTTGAAGACTCAGATAATCGGCGTTACAATCGAGCTGTTGATATTTGGGCTCTAGGTGTTGTTCTTTACATTTGCCTCTGTGGCTTCCCGCCATTCTCTGATGAATTGACCAGTAATGATTATCCTTACACTCTTGTCCAGCAGATTAAAATTGGTCAGTTCGACTTCCCATCGCCATATTGGGATAATATAGGAGACTCAGCTCTTGACCTCATTGACAAAATGTTAACAGTAGATGTTAACAAACGCATTAATATTGATCAATGTCTTGAACATCCATGGCTAACTCAAAGAGAATCAACGACTTTGCCAGGTGATTACTCTGAAGTTCTTGACGAACTT
  % decrease =/− SE TP1: 4 ± 4%

B6: GS1892: dsRNA trigger SEQ ID NO 148; gene target COP9 signalosome complex subunit 5 (nucleic acid)
chain: CGAGCTCTTATAGTGTGAGATCTGCAGCGAGTAGTATCTACTACTATGGGCACCGAAATCTTCGATCTTAGATAGTGGTATCGTTTGATAACCATCGTTAGTTGACGATTCTGCCGCCTTGTAGTTTTCTGGATAGGTCCGGAATGCACCTATTTCAACCTTACCAGCTGAGATGGTGCGATCTGGGTCAATGACAACCGCAAGAAAAGGATCCGAGAATGATTGCTGTATATGCTGTGTGCTAACATCTATGCCACTGAGCCAGCAGCCATAGCCTGGATGACTGTGGTACCACCCCACTGCATTCTCTAACTTTCCTTGCTCTCGACATGCCTGGAGATAACGAACCATATATTCATTTGCCTCATCTTGGGCATTAACACGTGTCTCCGTGCCTTC
  % decrease =/− SE TP1: 8 ± 5%
  % decrease =/− SE TP2: 3 ± 6%

B7: GS1891: dsRNA trigger SEQ ID NO 122; gene target eka-like_protein (nucleic acid)
chain: CACCAACTGGGTGTCAGTACTAATACCAACAGTTCCAGCTGTTTTACATAAAGAACAAGGAGTAGTTGAAGTGAGCAACAGCATGCTTGCTGATGAGGTGGAACGTGTCTGCTCTGTGCGGCCAGCTCACATAAAGCTTTATGGAAGAAATAAACCTGAGGCACCGTATCGAACATGGATGGCTTTCTTCCCGAAAGCTCCACGCGGCACTTTTAAAGTGTTCGACGAATCTGGAATTGCGAGCGAGGTCTTTTAAAAAGCAGCAACCTCTCGAATTTTGTAAAAGATGCAATGGGCACCACTCTATTAAAAATTGCTCAAGGGCTCCTTCGTGCGGAAATTGTGGCTCGACCAATCATACCGAGGATTTATGTATGGCCGCAACTAAGTGTAGAAATTGTGG
  % decrease =/− SE TP1: 3 ± 7%
  % decrease =/− SE TP2: 4 ± 7%

B8: GS1890: dsRNA trigger SEQ ID NO 154; gene target Pre-rRNA-processing protein FHL1 (nucleic acid)
chain: TAAAGGAATTGAAGGAGGAAAATTTGATGATGGATTGATAACAGACGGTACTTGCCCATTTATACGAGGTGGTAGCTGATAATTTGAAAAGTGACCTAATTGATTATGTGAAGATTCCATCGGGGCCCTGTACGTAAAGTGGCCTGCTATCTTTGAGAGACCATTTTGATAAGGAGTTTGTTGCAGACCTAGATAAGATTGAGGAGGCGGAGTAGCTCTCCTTTTTTTCTCTTTTTCAATAGATATACCGTCAACGATTCCCCAAGTCCAGCCTTTTCCATCCTTTTCAACTTTGCGGAAAGCATGGTGTTGTGATAGATTGTGACGAACACTACTTTGCCAGCCTAAGGTTTGAGTTTTAAATCTGAAATATGGGTATTTCCTGTATATAGCTCGGTAGATGT
  % decrease =/− SE TP1: 16 ± 5%
  % decrease =/− SE TP2: 4 ± 5%

B9: GS1884: dsRNA trigger SEQ ID NO 187; gene target Peptidyl-prolyl cis-trans isomerase ssp-1 (nucleic acid)
chain: TAATACTTCATCTGGAAGCCATCGAGTTTGCTTTTTATTATCTGAATTTTTGAGGCATTAAACTACAATACCTATTAAGGTTCAATTCAACGTTACAGTATGTAGCAGTAAATATCATTTTTGGTATAAGAATAAAAATATTCAAATTTTTACCGAAAAAAATGAAGCAGTAAGTCATATTTCTGGGTCAAGTCTCTGTAAGTCTTGCGCATCAAGCTTGCAATTGAGACTCCAAATGTGACTGGATATGTATATATATATATATATGGTGTTATAGTTGTCAAATCGAATCTATTCTATTCTTTGAATCAGATGTAGACCAGATGCTGTTTCTATGATTTGACTCATTTCTCCAACTTTGAGTTCGAATGCAGCATCTTCGAATTCTTTCTGCATATCACCTCTACCAAAGAAACCAAGGTCACCTTGTTTTTTAGCACTATTGCAATCAGACTC
  % decrease =/− SE TP1: 12 ± 4%

B10: ES45: dsRNA trigger SEQ ID NO 109; gene target Hypotethical effector (nucleic acid)
DNA: CTCACCTTGGCATCTACGAAGCCGACAGGAAGGTGGTGGCTACTATGGCCAACCATCGAATGGTGATGGAAGTGTGTATCCACCTTCATCTGGTACAGGTGGCTTTCTATCGCCAACTGCTACGAGCGGTTATCCGTCTGCAACTGGAACTGGCGGCTATTCATCTCCATCGGGCACCGGTGGCTACCCGTCTGCAACAGTTGAAAAAGACAATATTTCGAAGTTCCCGAGAGCTTTCGTATCCGGCAATGACTGCATCACGTCGAATTTCTACGATCCAAGACGAAAATAGTTTGTTTTTTTGCTGTTGGCGTGGAGTCTAGCTGTTGTGTACCCGAACCCTATTCGGATCATCAAATAGGATTGTAAGTTGGTTCATCATTTTATGAACAGATTCAAATTGTATTACCCCATTCTTAATCAATACCATGCAGGTGTGACTGACAGTC
  % decrease =/− SE TP1: 41 ± 5%
  % decrease =/− SE TP2: 31 ± 7%
